# Experimental data: patent US20250019737A1 (TECHNOLOGY INNOVATION MOMENTUM FUND ISRAEL LIMITED …, published 2025)
# B1: His6-MBP-ENTH, ENTH domain of yeast Ent1(1-152) (other, yeast (Saccharomyces cerevisiae), UniProt Q12518 1-152, looked up, not shown: small tags and cut ends; large carriers)
# chain: MSKQFVRSAKNLVKGYSSTQVLVRNATSNDNHQVSKDSLIELAEKSYDSADFFEIMDMLDKRLNDKGKYWRHIAKALTVIDYLIRFGSENCVLWCRENLYIIKTLKEFRHEDDEGIDQGQIVRVKAKELTALLSDDERLNEERNMNIKGRNR
# notes: range 1-152; also called yeast ENTH
# Biological target: T1, Ubiquitin R42E, R72E, untagged free mono-Ub (Homo sapiens (Human), UniProt P0CG47 1-76)
# T1 construct: also called Ub R42E, R72E
# Assay: SPR, immobilized His6-MBP-ENTH on Ni2+ chip, Ub mutant as analyte, single-site model
binder,measurement,value
B1,fold lower affinity than the wild-type complex,~2.6 fold
